One block for each binder: values may come before it. Positions of bridges follow the written chain, without caps; N, C: chain ends. No end group written: not given here.
Experiments:
[1] = biological target: T1, recombinant human IGFBP-3 (human, UniProt P17936 28-291); test: BIAcore competition assay
T1 construct: also called rhIGFBP-3; biotinylated IGFBP-3

[2] = biological target: T2, recombinant human IGFBP-1 (human, UniProt P08833 26-259); test: BIAcore competition assay or ELISA plate assay
T2 construct: Plate-coated, biotinylated or coupled to a dextran chip, depending on the assay; also called rhIGFBP-1; biotinylated IGFBP-1
T2 sequence (looked up): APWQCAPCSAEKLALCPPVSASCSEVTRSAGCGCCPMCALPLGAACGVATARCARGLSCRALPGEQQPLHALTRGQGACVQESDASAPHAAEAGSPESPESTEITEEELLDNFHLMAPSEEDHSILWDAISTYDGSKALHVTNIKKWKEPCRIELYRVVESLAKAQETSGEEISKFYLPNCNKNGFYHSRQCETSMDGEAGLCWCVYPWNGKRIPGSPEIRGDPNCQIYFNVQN

[3] = biological target: T2, recombinant human IGFBP-1; test: ELISA plate assay or BIAcore competition, IGF-I inhibition
[4] = biological target: T2, recombinant human IGFBP-1; test: ELISA competition, C-terminal bp1-01 variants

T1 sequence (P17936 28-291 limits assumed): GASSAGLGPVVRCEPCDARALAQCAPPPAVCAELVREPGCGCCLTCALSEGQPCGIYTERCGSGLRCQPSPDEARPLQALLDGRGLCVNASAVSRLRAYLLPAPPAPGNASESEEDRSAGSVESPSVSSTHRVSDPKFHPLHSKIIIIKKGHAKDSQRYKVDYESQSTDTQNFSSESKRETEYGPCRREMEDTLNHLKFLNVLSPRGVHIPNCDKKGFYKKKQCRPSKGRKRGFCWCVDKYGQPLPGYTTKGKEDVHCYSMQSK

Binder: ASEEVCWPVAEWYLCNMWGR [4d3.3 (peptide)]
binding result [1]: binds

Binder: CWPVAEWYLCN [bp3-25 (SEQ ID NO:106)]
binding result [1]: binds

B1: bp1-21B (peptide)
peptide: CRAGPLQWLCEKYFSTY-NH2
modifications: disulfide 1-10 (inferred)
notes: Peptide from g3 bp1-01 secondary libraries
binding result [2]: binds

B2: bp1-21A (peptide)
peptide: SEVGCRAGPLQWLCEKYFSTY-NH2
modifications: disulfide 5-14 (inferred)
notes: as for B1
binding result [2]: binds

Binder: ASEEVCWPVAEWYLCN (bp3-01-ox variant) [bp3-30]
binding result [1]: binds

B3: bp1-19 (peptide)
peptide: SEMVCRAGPLQWLCEIYF-NH2
modifications: disulfide 5-14 (inferred)
notes: as for B1
binding result [2]: binds

B4: bp1-10 (peptide)
peptide: CRKGPLQWLCELYF
notes: Peptide from g8 bp1-01 secondary libraries
binding result [3]: binds

B5: bp1029 (peptide)
peptide: CREGPLQWLCERFF
notes: as for B4
binding result [3]: binds

B6: bp68 (peptide)
peptide: CRAGPLQWLCEKFF
notes: as for B4
binding result [3]: binds

B7: bp1-15 (peptide)
peptide: CAAGPLQWLCEKYF
notes: as for B4
binding result [3]: binds

B8: bp1028 (peptide)
peptide: CRAGPLQWLCERFF
notes: as for B4
binding result [3]: binds

B10: bp1027 (peptide)
peptide: CKAGPLLWLCERFF
notes: as for B4
binding result [3]: binds

B13: bp1-12 (peptide)
peptide: CKEGPLQWLCEKYF
notes: as for B4
binding result [3]: binds

Continued, values first:

binding result [3]: binds
B9: bp1-11 (peptide)
peptide: CRKGPLQWLCEKYF
notes: as for B4

binding result [1]: binds
Binder: EEVCWPVAEWYLCN (bp3-01-ox variant) [bp3-28]

binding result [4]: binds
Binder: CRAGPLQWLCEKAA (C-terminal variant of bp1-01) [bp1-18]

binding result [3]: binds
B11: bp1030 (peptide)
peptide: CKEGPLLWLCERFF
notes: as for B4

binding result [1]: binds
Binder: GPETCWPVAEWYLCN (bp3-01-ox variant) [bp3-41]

binding result [1]: binds
Binder: EVCWPVAEWYLCN (bp3-01-ox variant) [bp3-27]

binding result [2]: binds
B12: bp1-20 (peptide)
peptide: EARVCRAGPLQWLCEKYF-NH2
modifications: disulfide 5-14 (inferred)
notes: as for B1

binding result [3]: binds
B14: bp1-13 (peptide)
peptide: CKEGPLLWLCEKYF
notes: as for B4
